From patent US20240261333A1, “NOVEL TARGETS FOR ENHANCING ANTI-TUMOR IMMUNITY” (THE BROAD INSTITUTE, INC., priority 2021, published 2024)

T1: B3GNT2 (Homo sapiens, UniProt Q9NY97)
T1 construct: The respective ORFs of candidate genes [CD274 (NM_014143), MCL1 (NM_021960), JUNB (NM_002229), and B3GNT2 (NM_006577)] were synthesized; expressed in transfected cells; host or cells: A375 melanoma cells (lentiviral ORF overexpression)
T1 sequence (Q9NY97 1-397): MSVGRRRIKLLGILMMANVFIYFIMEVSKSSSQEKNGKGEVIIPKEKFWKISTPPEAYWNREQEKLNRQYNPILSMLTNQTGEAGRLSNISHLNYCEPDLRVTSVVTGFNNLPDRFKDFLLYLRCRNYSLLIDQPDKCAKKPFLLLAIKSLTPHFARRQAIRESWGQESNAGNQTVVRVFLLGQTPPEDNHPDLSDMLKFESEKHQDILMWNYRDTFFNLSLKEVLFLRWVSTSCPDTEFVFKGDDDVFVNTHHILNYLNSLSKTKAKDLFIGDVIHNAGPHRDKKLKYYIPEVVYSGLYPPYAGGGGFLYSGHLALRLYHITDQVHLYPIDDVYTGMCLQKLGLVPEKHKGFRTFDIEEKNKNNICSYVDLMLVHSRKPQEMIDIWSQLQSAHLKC


Target: T1, B3GNT2
Experiment: Co-IP of FLAG-tagged B3GNT2 followed by mass spectrometry
Format: cell-based
Parameters: C-term IgG / C-term flag: unit not given here
Conditions: mass spectrometry count, unit not given; for C-term flag / N-term FLAG: Co-IP with FLAG antibody; for C-term flag / C-term IgG: C-terminally FLAG-tagged B3GNT2; for N-term FLAG / N-term IgG: N-terminally FLAG-tagged B3GNT2; for C-term IgG / N-term IgG: Co-IP with IgG control antibody
Summary of the method: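 Co-purifying proteins were identified by fractionated nano-LC–MS/MS on an Orbitrap Elite, run data-dependent. Beforehand, lysates in 1% Triton X-100/HEPES buffer were incubated overnight at 4° C with anti-FLAG or […] and pulled down on Protein A/G magnetic beads for 4 h. Duplicate biological replicates.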

Row | Molecule | C-term flag | N-term FLAG | C-term IgG | N-term IgG
1 | CANX (protein) HDGHDDDVIDIEDDLDDVIEEVEDSKPDTTAPPSSPKVTYKAPVPTGEVYFADSFDRGTLSGWILSKAKKDDTDDEIAKYDGKWEVEEMKESKLPGDKGLVLMSRAKHHAISAKLNKPFLFDTKPLIVQYEVNFQNGIECGGAYVKLLSKTPELNLDQFHDKTPYTIMFGPDKCGEDYKLHFIFRHKNPKTGIYEEKHAKRPDADLKTYFTDKKTHLYTLILNPDNSFEILVDQSVVNSGNLLNDMTPPVNPSREIEDPEDRKPEDWDERPKIPDPEAVKPDDWDEDAPAKIPDEEATKPEGWLDDEPEYVPDPDAEKPEDWDEDMDGEWEAPQIANPRCESAPGCGVWQRPVIDNPNYKGKWKPPMIDNPSYQGIWKPRKIPNPDFFEDLEPFRMTPFSAIGLELWSMTSDIFFDNFIICADRRIVDDWANDGWGLKKAADGAAEPGVVGQMIEAAEERPWLWVVYILTVALPVFLVILFCCSGKKQTSGMEYKKTDAPQPDVKEEEEEKEEEKDKGDEEEEGEEKLEEKQKSDAEEDGGTVSQEEEDRKPKAEEDEILNRSPRNRKPRRE | 11 | 6 | 0 | 0
2 | UQCRC2 (protein) SLKVAPKVKATAAPAGAPPQPQDLEFTKLPNGLVIASLENYSPVSRIGLFIKAGSRYEDFSNLGTTHLLRLTSSLTTKGASSFKITRGIEAVGGKLSVTATRENMAYTVECLRGDVDILMEFLLNVTTAPEFRRWEVADLQPQLKIDKAVAFQNPQTHVIENLHAAAYRNALANPLYCPDYRIGKVTSEELHYFVQNHFTSARMALIGLGVSHPVLKQVAEQFLNMRGGLGLSGAKANYRGGEIREQNGDSLVHAAFVAESAVAGSAEANAFSVLQHVLGAGPHVKRGSNTTSHLHQAVAKATQQPFDVSAFNASYSDSGLFGIYTISQATAAGDVIKAAYNQVKTIAQGNLSNTDVQAAKNKLKAGYLMSVESSECFLEEVGSQALVAGSYMPPSTVLQQIDSVANADIINAAKKFVSGQKSMAASGNLGHTPFVDEL | 4 | 13 | 0 | 0
3 | SRSF7 (protein) MSRYGRYGGETKVYVGNLGTGAGKGELERAFSYYGPLRTVWIARNPPGFAFVEFEDPRDAEDAVRGLDGKVICGSRVRVELSTGMPRRSRFDRPPARRPFDPNDRCYECGEKGHYAYDCHRYSRRRRSRSRSRSHSRSRGRRYSRSRSRSRGRRSRSASPRRSRSISLRRSRSASLRRSRSGSIKGSRYFQSPSRSRSRSRSISRPRSSRSKSRSPSPKRSRSPSGSPRRSASPERMD | 0 | 2 | 0 | 0
4 | SERPINE2 (protein) SHFNPLSLEELGSNTGIQVFNQIVKSRPHDNIVISPHGIASVLGMLQLGADGRTKKQLAMVMRYGVNGVGKILKKINKAIVSKKNKDIVTVANAVFVKNASEIEVPFVTRNKDVFQCEVRNVNFEDPASACDSINAWVKNETRDMIDNLLSPDLIDGVLTRLVLVNAVYFKGLWKSRFQPENTKKRTFVAADGKSYQVPMLAQLSVFRCGSTSAPNDLWYNFIELPYHGESISMLIALPTESSTPLSAIIPHISTKTIDSWMSIMVPKRVQVILPKFTAVAQTDLKEPLKVLGITDMFDSSKANFAKITTGSENLHVSHILQKAKIEVSEDGTKASAATTAILIARSSPPWFIVDRPFLFFIRHNPTGAVLFMGQINKP | 11 | 4 | 0 | 0
5 | PRR4 (protein) QSTDNDVNYEDFTFTIPDVEDSSQRPDQGPQRPPPEGLLPRPPGDSGNQDDGPQQRPPKPGGHHRHPPPPPFQNQQRPPRRGHRQLSLPRFPSVSLQEASSFFQRDRPARHPQEQPLW | 0 | 2 | 0 | 0
6 | SLC25A3 (protein) AVEEQYSCDYGSGRFFILCGLGGIISCGTTHTALVPLDLVKCRMQVDPQKYKGIFNGFSVTLKEDGVRGLAKGWAPTFLGYSMQGLCKFGFYEVFKVLYSNMLGEENTYLWRTSLYLAASASAEFFADIALAPMEAAKVRIQTQPGYANTLRDAAPKMYKEEGLKAFYKGVAPLWMRQIPYTMMKFACFERTVEALYKFVVPKPRSECSKPEQLVVTFVAGYIAGVFCAIVSHPADSVVSVLNKEKGSSASLVLKRLGFKGVWKGLFARIIMIGTLTALQWFIYDSVKVYFRLPRPPPPEMPESLKKKLGLTQ | 9 | 4 | 0 | 0
7 | CKAP4 (protein) MPSAKQRGSKGGHGAASPSEKGAHPSGGADDVAKKPPPAPQQPPPPPAPHPQQHPQQHPQNQAHGKGGHRGGGGGGGKSSSSSSASAAAAAAAASSSASCSRRLGRALNFLFYLALVAAAAFSGWCVHHVLEEVQQVRRSHQDFSRQREELGQGLQGVEQKVQSLQATFGTFESILRSSQHKQDLTEKAVKQGESEVSRISEVLQKLQNEILKDLSDGIHVVKDARERDFTSLENTVEERLTELTKSINDNIAIFTEVQKRSQKEINDMKAKVASLEESEGNKQDLKALKEAVKEIQTSAKSREWDMEALRSTLQTMESDIYTEVRELVSLKQEQQAFKEAADTERLALQALTEKLLRSEESVSRLPEEIRRLEEELRQLKSDSHGPKEDGGFRHSEAFEALQQKSQGLDSRLQHVEDGVLSMQVASARQTESLESLLSKSQEHEQRLAALQGRLEGLGSSEADQDGLASTVRSLGETQLVLYGDVEELKRSVGELPSTVESLQKVQEQVHTLLSQDQAQAARLPPQDFLDRLSSLDNLKASVSQVEADLKMLRTAVDSLVAYSVKIETNENNLESAKGLLDDLRNDLDRLFVKVEKIHEKV | 14 | 2 | 0 | 0
8 | ERLIN1 (protein) MNMTQARVLVAAVVGLVAVLLYASIHKIEEGHLAVYYRGGALLTSPSGPGYHIMLPFITTFRSVQTTLQTDEVKNVPCGTSGGVMIYIDRIEVVNMLAPYAVFDIVRNYTADYDKTLIFNKIHHELNQFCSAHTLQEVYIELFDQIDENLKQALQKDLNLMAPGLTIQAVRVTKPKIPEAIRRNFELMEAEKTKLLIAAQKQKVVEKEAETERKKAVIEAEKIAQVAKIRFQQKVMEKETEKRISEIEDAAFLAREKAKADAEYYAAHKYATSNKHKLTPEYLELKKYQAIASNSKIYFGSNIPNMFVDSSCALKYSDIRTGRESSLPSKEALEPSGENVIQNKESTG | 9 | 11 | 0 | 0
9 | CASP14 (protein) MSNPRSLEEEKYDMSGARLALILCVTKAREGSEEDLDALEHMFRQLRFESTMKRDPTAEQFQEELEKFQQAIDSREDPVSCAFVVLMAHGREGFLKGEDGEMVKLENLFEALNNKNCQALRAKPKVYIIQACRGEQRDPGETVGGDEIVMVIKDSPQTIPTYTDALHVYSTVEGYIAYRHDQKGSCFIQTLVDVFTKRKGHILELLTEVTRRMAEAELVQEGKARKTNPEIQSTLRKRLYLQ | 9 | 8 | 4 | 3
10 | HSPH1 (protein) SVVGLDVGSQSCYIAVARAGGIETIANEFSDRCTPSVISFGSKNRTIGVAAKNQQITHANNTVSNFKRFHGRAFNDPFIQKEKENLSYDLVPLKNGGVGIKVMYMGEEHLFSVEQITAMLLTKLKETAENSLKKPVTDCVISVPSFFTDAERRSVLDAAQIVGLNCLRLMNDMTAVALNYGIYKQDLPSLDEKPRIVVFVDMGHSAFQVSACAFNKGKLKVLGTAFDPFLGGKNFDEKLVEHFCAEFKTKYKLDAKSKIRALLRLYQECEKLKKLMSSNSTDLPLNIECFMNDKDVSGKMNRSQFEELCAELLQKIEVPLYSLLEQTHLKVEDVSAVEIVGGATRIPAVKERIAKFFGKDISTTLNADEAVARGCALQCAILSPAFKVREFSVTDAVPFPISLIWNHDSEDTEGVHEVFSRNHAAPFSKVLTFLRRGPFELEAFYSDPQGVPYPEAKIGRFVVQNVSAQKDGEKSRVKVKVRVNTHGIFTISTASMVEKVPTEENEMSSEADMECLNQRPPENPDTDANEKKVDQPPEAKKPKIKVVNVELPIEANLVWQLGKDLLNMYIETEGKMIMQDKLEKERNDAKNAVEEYVYEFRDKLCGPYEKFICEQDHQNFLRLLTETEDWLYEEGEDQAKQAYVDKLEELMKIGTPVKVRFQEAEERPKMFEELGQRLQHYAKIAADFRNKDEKYNHIDESEMKKVEKSVNEVMEWMNNVMNAQAKKSLDQDPVVRAQEIKTKIKELNNTCEPVVTQPKPKIESPKLERTPNGPNIDKKEEDLEDKNNFGAEPPHQNGECYPNEKNSVNMDLD | 7 | 8 | 0 | 0
